{
  "source": "paper PMC10599522",
  "data": [
    {"molecular_target": "T1, 6his-GSU1771 (Geobacter sulfurreducens (DL1 wild-type background)) (UniProt Q74CA3)", "T1 sequence": "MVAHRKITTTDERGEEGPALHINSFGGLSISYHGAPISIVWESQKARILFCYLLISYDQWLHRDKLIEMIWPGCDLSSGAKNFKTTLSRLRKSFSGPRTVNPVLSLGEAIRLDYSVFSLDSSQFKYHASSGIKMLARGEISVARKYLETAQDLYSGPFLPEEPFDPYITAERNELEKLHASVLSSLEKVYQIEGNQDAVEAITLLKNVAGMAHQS", "test": "EMSA", "settings": "40 mM HEPES, 8 mM MgCl2, 50 mM KCl, 1 mM DTT, 0.05% NP-40, 0.1 mg/ml BSA, 20 ul, 30 C 30 min, pH not stated; 100 ng of each fragment; 6% native PAGE in 0.5X …", "values": [
      {"sequence": "GTGGTATTCATGCACGTATTCTAATGACGGCCCGCAACCCAGGTGGAGCCGTCATCCTTTTTTTCGGATATACTGCCTGGATTCACGACTGAACCGGGACGGAAGGCAATAGCCGCACCGACGAGGATAGGATGAGCTTTCCCTTC (double strand) [gsu1704-gsu1705 intergenic region]", "binding": "no binding"},
      {"sequence": "ACCATCTTCGCATCCCTGTGGAGGATCTCTGCTTTTCCTGCCACGACCGATAGCAGTGACTATTGTGTTGTGGTGGGTGTGTTGTGATGGTGTTGCGGTCATGTTTCTGCTTGTTTTTATTTTTAATTTTACCCATTTTGTGCTAAGAAAATCTAATGGCCCTATACCACTGTAAGCTCGGCTCCTCGGAG (double strand) [pulF promoter]", "binding": "binds"},
      {"sequence": "AGGCTTGCTCGTCTCATGTCGCGCCGCCGTGGGAAAAAGTAGTAACCAGTAGTATATCATTTCGTCACCGTGGTTTCATTGCTTGAGCTTTTTTGCATCCGAAGCGACTCCAGCCTGTGCCCTCCGGCAATAAACCGCTTTTCCCCCGCCGGTGATGGTGGTACTCTCCTCCCATTTCGCGGAGGATGGAGTGCATGGAT (double strand) [gsu3356 promoter]", "binding": "binds"},
      {"sequence": "CGCTGGATCTCCTGAAAGGGTGGGAAATCCTGAAAACAATAAGCAAATGAGAGGATGACTTACGCCAAAAGGGGGGGCTCGGGCCCCCCCTTTTTTTATGTAAATCCGATAAGTTCTATATTTGTATTGACACTCCCGTAACGATGTAGTATTCAGTAGGTAAATTAATCACAGTTAAGGTAAGGGTGTATCGCG (double strand) [gsu1771 promoter]", "binding": "binds"}
    ]}
  ]
}
